Experimental data taken from PMC3231483.

How the values were obtained:
thrombin [1] = biological target: T1, thrombin (human, UniProt P00734;P00734 328-363;364-622); experiment: guided mode resonance sensor (kinetic, Langmuir 1:1); 0.50 uM thrombin; ka 1.52e5 M-1s-1, kd 0.61e-1 s-1; Aptamer immobilized from 1 uM in PBS; assay buffer, salt and temperature not given in the material (Tris-HCl pH 7.4 and sodium phosphate listed as reagents); re
thrombin [2] = biological target: T1, thrombin; experiment: guided mode resonance sensor (kinetic, Langmuir 1:1); 1.00 uM thrombin; ka 0.18e5 M-1s-1, kd 1.54e-1 s-1; Aptamer immobilized from 1 uM in PBS; assay buffer, salt and temperature not given in the material (Tris-HCl pH 7.4 and sodium phosphate listed as reagents); re
thrombin [3] = biological target: T1, thrombin; experiment: guided mode resonance sensor (kinetic, Langmuir 1:1); 0.25 uM thrombin; ka 2.06e5 M-1s-1, kd 1.05e-1 s-1; Aptamer immobilized from 1 uM in PBS; assay buffer, salt and temperature not given in the material (Tris-HCl pH 7.4 and sodium phosphate listed as reagents); re
thrombin [4] = biological target: T1, thrombin; experiment: guided mode resonance sensor (kinetic, Langmuir 1:1); 0.75 uM thrombin; ka 1.83e5 M-1s-1, kd 0.30e-1 s-1; Aptamer immobilized from 1 uM in PBS; assay buffer, salt and temperature not given in the material (Tris-HCl pH 7.4 and sodium phosphate listed as reagents); re
thrombin [5] = biological target: T1, thrombin; experiment: guided mode resonance sensor (Langmuir linear regression); 0.25-1 uM thrombin; order of magnitude only; Aptamer immobilized from 1 uM in PBS; assay buffer, salt and temperature not given in the material (Tris-HCl pH 7.4 and sodium phosphate listed as reagents); re
thrombin [6] = biological target: T1, thrombin; experiment: guided mode resonance sensor (kinetic, Langmuir 1:1); 1.50 uM thrombin; ka 0.20e5 M-1s-1, kd 1.33e-1 s-1; Aptamer immobilized from 1 uM in PBS; assay buffer, salt and temperature not given in the material (Tris-HCl pH 7.4 and sodium phosphate listed as reagents); re

AGTCCGTGGTAGGGCAGGTTGGGGTGACT (structured_DNA, 5' NH2) [29-mer thrombin aptamer (TBA)] was tested, and the Ka (thrombin [1]) was 2.5 10^6 M^-1, the Ka (thrombin [2]) was 0.12 10^6 M^-1 and the Ka (thrombin [3]) was 1.95 10^6 M^-1. The Ka (thrombin [4]) was 6.18 10^6 M^-1, the Ka (thrombin [5]) was ~1 10^6 M^-1 and the Ka (thrombin [6]) was 0.15 10^6 M^-1.
